The values that follow come from article PMC3086075.

The Km is the concentration of substrate that gives half-maximal velocity. The kcat is the number of substrate molecules converted per active site and unit of time at saturation. For orientation: kcat/Km means the second-order rate constant that governs catalysis at low substrate concentration.

Common to all, as to test: discontinuous malachite green phosphate-release assay, Michaelis-Menten fit
Type in all cases: biochemical, Pasteurella multocida
What all share (conditions): 200 mM sodium acetate pH 5.5, 1 mM MgCl2, 37 °C, apparent Km

Substrate in data set [1]: O=[N+]([O-])c1ccc(OP(=O)(O)O)cc1
Substrate in data set [2]: Nc1ncnc2c1ncn2[C@@H]1O[C@H](CO)[C@@H](O)[C@H]1OP(=O)(O)O
Substrate in data set [3]: Nc1ncnc2c1ncn2[C@@H]1O[C@H](COP(=O)(O)O)[C@@H](O)[C@H]1O
Substrate in data set [4]: Nc1ncnc2c1ncn2[C@@H]1O[C@H](CO)[C@@H](OP(=O)(O)O)[C@H]1O
Substrate in data set [5]: NC(=O)c1ccc[n+]([C@@H]2O[C@H](COP(=O)([O-])O)[C@@H](O)[C@H]2O)c1

B1: rPmCCAP (Pasteurella multocida) (protein)
chain: SNQQAVEQANQAKLQQQVAMGLIWTQQSGEYAALAHQAFNSAKMAFDHAKAKKGKKKAVVVDLDETMIDNSAYAGWQVQSGQGFSPKTWTKWVDARQSAAIPGAVEFSNYVNANGGTMFFVSNRRDDVEKAGTVDDMKRLGFTGVNDKTLLLKKDKSNKSVRFKQVEDMGYDIVLFVGDNLNDFGDATYKKSNAERRDFVAKNSKAFGKKFIVLPNTQYGDWEGGLDKNYFKGDSQSKLDVRAKAIHAWDGK
Turning to B1, the Michaelis-Menten constant (Km) in data set [1] is 500 ± 100 µM; in data set [2], 1400 ± 300 µM; in data set [3], 80 ± 10 µM; in data set [4], 800 ± 200 µM; in data set [5], 290 ± 60 µM. Also, the catalytic constant (kcat) was 6.2 ± 0.5 s⁻¹ in data set [1]; 0.13 ± 0.01 s⁻¹ in data set [2]; 0.18 ± 0.01 s⁻¹ in data set [3]; 0.19 ± 0.01 s⁻¹ in data set [4]; 4.4 ± 0.3 s⁻¹ in data set [5]. Also, the specificity constant (kcat/Km) in data set [1] was determined as 12000 ± 2700 M⁻¹ s⁻¹; in data set [2], 90 ± 21 M⁻¹ s⁻¹; in data set [3] it was 2300 ± 310 M⁻¹ s⁻¹; in data set [4] it was 240 ± 61 M⁻¹ s⁻¹; in data set [5], 15000 ± 3300 M⁻¹ s⁻¹.
